Test results published in patent US20030119733A1, “Compositions and methods for inhibiting hepatocyte invasion by malarial sporozoites” (New York University, priority 1992, published 2003).

How the values were obtained:
liver membranes = assay: Binding activity of aggregated and monomeric FPLC fractions; conditions: aggregated form
Experimental: To separate monomers from multimers of recombinant CS, the preparations were subjected to molecular sieving chromatography on an FPLC apparatus (Pharmacia, Piscataway, N.J.). One hundred micrograms of CS27IVC in a phosphate buffer containing 150 mM NaCl (pH 7.2) was injected into a Superose 12 sizing column (Pharmacia). The protein was eluted in the same buffer using a flow rate of 0.2 ml/min. A high molecular weight fraction ([…]) co-eluted with thyroglobulin. The monomeric form of the protein eluted between amylase (molecular weight=200 kDa) and BSA (molecular weight=66kDa).
The methods described by Lambert, J. M. et al., Biochemistry 17:5406-5416, 1978 were followed. Falciparum-1 at a concentration of 1 mg/ml was incubated with 250 mM Traut's reagent (Pierce Chemical Co., Rockford, Ill.) in 50 mM triethylamine-hydrochloric acid (TEA-HCl) (pH 8.0), 1 mM Mg(Ac)2, and 50 mM KCl for 20 min. on ice. Traut's reagent (0.5 M stock) was prepared immediately before use in a solution containing equal volumes of 1 M TEA-HCl and 1 M TEA-free base. The sulfhydryl-containing falciparum-1 was oxidized in ambient air at 4° C. overnight. The presence of aggregated disulfide-linked falciparum-1 was confirmed both by chromatography in an FPLC sizing column and by Western blotting as described above.
The gold conjugates employed in the foregoing liver section experiments contained no aggregates. […]

[1] = Clearance studies of 125I-labeled proteins; format: in vivo, mouse; conditions: monomeric fraction of CS27IVC, or Falc-1; i.v., between 2 and 15 minutes
Experimental: Clearance Studies: Mice were anesthetized with ether, and injected with 10^5 cpm of ^125I-labeled CS27IVC or Falc-1 via the periorbital sinus. At two, five and fifteen minutes after injection, the mice were exsanguinated, the organs removed, rinsed in TBS, blotted dry on filter paper, and counted for radioactivity. To estimate the amounts of blood contaminating the various organs, we repeated the same procedure in mice injected with 100 μl (1.5×10^5 cpm) of ^51Cr-labeled RBC. The mean volumes of blood in the liver, spleen and kidney of the exsanguinated animals were 75, 24, and 35 μl respectively. In all other organs, the amount of blood was negligible, i.e., less than 15 μl. The percent of injected dose of CS which was retained in the various organs was calculated as described as follows: [formula]
Radiolabeled Falc-1 (FIG. 30B), and the aggregated (FIG. 30C) and monomeric (FIG. 30A) fractions of radiolabeled CS27IVC proteins were injected intravenously into the retroorbital sinuses of mice. The animals were sacrificed 2, 5 and 15 minutes later, and the amounts of CS in the blood and in various organs were measured. Additionally, the radioactivity associated with the various organs was calculated. […]

[2] = tested on: heparan sulfate proteoglycans (HSPG); assay: CS/proteoglycan co-immunoprecipitation; format: binding, human; conditions: for co-immunoprecipitation of 35SO4-labeled sulfated molecules: lysates of rat liver, HepG2 cells, kidney, others 64 μg/ml; for total sulfate-labeled proteoglycans precipitated: trypsin-released proteoglycan, equivalent concentrations of Region II+
Experimental: All extracts and supernatants were first precleared with normal rabbit serum and Staph A cells. Then 32 μg/ml of CSFZ(Cys) or 64 μg/ml of CS27IVC, Falc-2 or Falc-1 were added for 30 minutes, followed by 10.8 μg/ml mAb 2A10 for 30 minutes, and 1% Staph A cells (final concentrations). The suspensions were shaken for 1 to 5 hours at 4° C. The Staph A cells were washed 3 times with the lysis buffer A, 2 times with lysis buffer B (10 mM Tris-HCl, pH 7.2, containing 100 mM NaCl and 0.5% NP40), 1 time with 50 mM Tris-HCl, ph 7.2, and were processed in this buffer for electrophoresis under reducing and non-reducing conditions.
Extracts of cells metabolically labeled with ^35SO4 were incubated for 30 minutes at 4° C. with 32 μg/ml of recombinant CSFZ(Cys) or 64 μg/ml Falc-1, and were immunoprecipitated with mAb 2A10 and Staph A cells. […] Immunoprecipitation with Falc-1 was negative. The SDS-PAGE patterns of the total lysate of HepG2 cells, and of the molecules co-immunoprecipitated with CSFZ(Cys) resembled the corresponding liver SDS-PAGE patterns. In kidney lysates, CSFZ(Cys) selectively immunoprecipitated a band of slightly lower molecular weight than the total kidney sulfated molecules.
Sub-confluent HepG2 cells were incubated with various concentrations of trypsin for 5 minutes at 4° C. […] Independently of the trypsin concentration, about 80% of the released HSPG was co-immunoprecipitated by 32 μg/ml CSFZ(Cys) and 10.8 μg/ml mAb 2A10. Under the same conditions, Falc-1 was negative.
^35SO4-labeled trypsin-released proteoglycan (total supernatant) was precipitated by CSFZ(Cys) (32 μg/ml), Falc-2 (64 μg/ml), CS27IVC (64 μg/ml) and Falc-1 (64 μg/ml). The labeled molecules were incubated with CSFZ(Cys), CS27IVC, and Falc-2 at equivalent concentrations of Region II+, and co-immunoprecipitated with the mAb 2A10. CSFZ(Cys), lacking most of the repeat region, precipitated up to 86% of the total sulfate-labeled proteoglycans (see FIG. 14), while CS27IVC and Falc-2 precipitated only 18% and 6% of the counts, respectively. Falc-1, which lacks Region II+, was negative.
Subconfluent sulfate-labeled HepG2 cells were incubated with 20 μg/ml trypsin for 5 minutes at 4° C., and the supernatants were loaded onto an anion exchange chromatography Pharmacia mono-Q column. These were eluted with a 0 to 2 M NaCl gradient in the presence of 7 M urea. […] Protein was not detectable in the labeled peaks. One ml fractions were collected and counted.

| Molecule | binding activity (liver membranes) | injected counts recovered in the blood and in various organs [1] | co-immunoprecipitation of 35SO4-labeled sulfated molecules ([2]; CSFZ(Cys) 32 μg/ml, listed as Falc-1) | released HSPG co-immunoprecipitated ([2]; trypsin-released from HepG2 cells, CSFZ(Cys) 32 μg/ml, mAb 2A10 10.8 μg/ml) | total sulfate-labeled proteoglycans precipitated [2] | co-immunoprecipitation of 35SO4-labeled sulfated molecules ([2]; CSFZ(Cys) 32 μg/ml) |
| --- | --- | --- | --- | --- | --- | --- |
| Falciparum-1: Same as Falciparum-2 minus most of Region II+ (P. falciparum residues 43-348) (protein) AGTNLYNELEMNYYGKQENWYSLKKNSRSLGENDDGNNNNGDNGREGKDEDKRDGNNEDNEKLRKPKHKKLKQPGDGNPDPNANPNVDPNANPNVDPNANPNVDPNANPNANPNANPNANPNANPNANPNANPNANPNANPNANPNANPNANPNANPNANPNANPNVDPNANPNANPNANPNANPNANPNANPNANPNANPNANPNANPNANPNANPNANPNANPNANPNANPNANPNANPNANPNKNNQGNGQGHNMPNDPNRNVDENANANNAVKNNNNEEPSDKHIEQYLKKIKNSISTEWSP | inactive | about 40% | Negative results | negative | negative | – |
| Falciparum-2: fragment of P. falciparum CS protein with repeats and Region II+ (residues 43-391) (protein) AGTNLYNELEMNYYGKQENWYSLKKNSRSLGENDDGNNNNGDNGREGKDEDKRDGNNEDNEKLRKPKHKKLKQPGDGNPDPNANPNVDPNANPNVDPNANPNVDPNANPNANPNANPNANPNANPNANPNANPNANPNANPNANPNANPNANPNANPNANPNANPNVDPNANPNANPNANPNANPNANPNANPNANPNANPNANPNANPNANPNANPNANPNANPNANPNANPNANPNANPNANPNKNNQGNGQGHNMPNDPNRNVDENANANNAVKNNNNEEPSDKHIEQYLKKIKNSISTEWSPCSVTCGNGIQVRIKPGSANKPKDELDYENDIEKKICKMEKCSS | – | – | – | – | 6% | less efficient |
